Substrate in series [1]: OC[C@H]1OC(O)[C@H](O)[C@@H](O)[C@@H]1O
The experiment in a line: Steady-state kinetics, DCIP assay: C. thermophilus CDH C310Y. The series is classed as biochemical, Corynascus thermophilus. The note with it: other: apparent, pH 5.5, 30° C.

Substrate in series [2]: OC[C@H]1O[C@H](O[C@H]2[C@H](O)[C@@H](O)C(O)O[C@@H]2CO)[C@H](O)[C@@H](O)[C@@H]1O
The series is described as above. The series is classed as biochemical, Corynascus thermophilus. As to conditions: other: apparent, pH 5.5, 30° C.

Substrate in series [3]: OC[C@H]1O[C@H](O[C@H]2[C@H](O)[C@@H](O)C(O)O[C@@H]2CO)[C@H](O)[C@@H](O)[C@@H]1O
Nature of the series: Steady-state kinetics, DCIP assay: M. thermophilum CDH N313S. The series is classed as biochemical, Myriococcum thermophilum. The note with it: other: apparent, pH 4.5, 30° C.

Substrate in series [4]: OC[C@H]1OC(O)[C@H](O)[C@@H](O)[C@@H]1O
Nature of the series: Steady-state kinetics, DCIP assay: M. thermophilum CDH W316L. The series is classed as biochemical, Myriococcum thermophilum. The note with it: other: apparent, pH 4.5, 30° C., ~ values only estimated by non linear regression.

Substrate in series [5]: OC[C@H]1O[C@H](O[C@H]2[C@H](O)[C@@H](O)C(O)O[C@@H]2CO)[C@H](O)[C@@H](O)[C@@H]1O
Nature of the series: Steady-state kinetics, DCIP assay: M. thermophilum CDH wt. The note with it: other: apparent, pH 4.5, 30° C. The series is classed as biochemical, Myriococcum thermophilum.

Substrate in series [6]: OC[C@H]1O[C@H](O[C@H]2[C@H](O)[C@@H](O)C(O)O[C@@H]2CO)[C@H](O)[C@@H](O)[C@@H]1O
The experiment in a line: Steady-state kinetics, DCIP assay: M. thermophilum CDH N721D. The note with it: other: apparent, pH 4.5, 30° C. The series is classed as biochemical, Myriococcum thermophilum.

Substrate in series [7]: OC[C@H]1OC(O)[C@H](O)[C@@H](O)[C@@H]1O
The experiment in a line: Steady-state kinetics, DCIP assay: M. thermophilum CDH R622N. The series is classed as biochemical, Myriococcum thermophilum. As to conditions: other: apparent, pH 4.5, 30° C., ~ values only estimated by non linear regression.

Substrate in series [8]: OC[C@H]1OC(O)[C@H](O)[C@@H](O)[C@@H]1O
The experiment in a line: Steady-state kinetics, DCIP assay: M. thermophilum CDH W316R. The series is classed as biochemical, Myriococcum thermophilum. The note with it: other: apparent, pH 4.5, 30° C., ~ values only estimated by non linear regression.

Substrate in series [9]: OC[C@H]1OC(O)[C@H](O)[C@@H](O)[C@@H]1O
Nature of the series: Steady-state kinetics, DCIP assay: C. thermophilus flavodehydrogenase domain C310Y. The series is classed as biochemical, Corynascus thermophilus. As to conditions: other: apparent, pH 5.5, 30° C.

Substrate in series [10]: OC[C@H]1O[C@H](O[C@H]2[C@H](O)[C@@H](O)C(O)O[C@@H]2CO)[C@H](O)[C@@H](O)[C@@H]1O
The series is described as above. The series is classed as biochemical, Corynascus thermophilus. As to conditions: other: apparent, pH 5.5, 30° C.

Substrate in series [11]: OC[C@H]1O[C@H](O[C@H]2[C@H](O)[C@@H](O)C(O)O[C@@H]2CO)[C@H](O)[C@@H](O)[C@@H]1O
Nature of the series: purified protein, by the assay type. As to conditions: other: apparent, wt flavodehydrogenase domain, DCIP assay, pH 5.5, 30° C.

Where a chain is given by its changes, count along the chain named. Names and notes keep the numbering of the source.

B1: Corynascus thermophilus cellobiose dehydrogenase (CDH, SEQ ID NO: 7) variant C310Y (Thermothelomyces fergusii; C310Y) (protein)
chain: QMTEGTYTHEATGITFKTWTPSDGSTFTFGLALPGDALTNDATEYIGLLRCQITDPSSPGYCGISHGQSGQMTQALLLVAWASEDVVYTSFRYATGYTLPELYTGDAKLTQIASSVSGDSFEVLFRCENCFSWDQNGATGSVSTSNGALVLGYAASKSGLTGATCPDTAEFGFHNNGFGQWGAVLEGATSDSYEEWAQLATITPPTTCDGNGPGDKVCVPAPEDTYDYIVVGAGAGGITVADKLSEAGHKVLLIEKGPPSTGLWNGTMKPEWLEGTDLTRFDVPGLYNQIWVDSAGIACTDTDQMAGCVLGGGTAVNAGLWWKPHPADWDDNFPHGWKSSDLADATERVFSRIPGTWHPSQDGKLYRQEGFEVISQGLANAGWREVDANQEPSEKNRTYSHSVFMFSGGERGGPLATYLASAAQRSNFNLWVNTSVRRAIRTGPRVSGVELECLADGGFNGTVNLKEGGGVIFSAGAFGSAKLLLRSGIGPEDQLEIVASSKDGETFISKNDWIKLPVGHNLIDHLNTDLIITHPDVVFYDFYAAWDNPITEDKEAYLNSRSGILAQAAPNIGPLMWEEVTPSDGITRQFQWTCRVEGDSSKTNSTHAMTLSQYLGRGVVSRGRMGITSGLTTTVAEHPYLHNDGDLEAVIQGIQNVVDALSQVPDLEWVLPPPNTTVEEYVNSLIVSPANRRANHWMGTAKMGLDDGRSGGSAVVDLNTKVYGTDNLFVVDASIFPGMSTGNPSAMIVIVAEQAAQRILSLRY
For the protein B1, in series [1], the Km is recorded as 37.5 mM, the kcat is 19.67 s⁻¹ and the kcat/Km is 524.5 M⁻¹ s⁻¹. In series [2], the Km was determined as 80.0 mM, the kcat turned out to be 0.95 s⁻¹ and the kcat/Km worked out at 12 M⁻¹ s⁻¹.

B2: Myriococcum thermophilum cellobiose dehydrogenase (CDH, SEQ ID NO: 1) variant N313S (Thermothelomyces myriococcoides; N313S) (protein)
chain: QNNVPNTFTDPDSGITFNTWGLDEDSPQTQGGFTFGVALPSDALTTDASEFIGYLKCARNDESGWCGISLGGPMTNSLLITAWPHEDTVYTSLRFATGYAMPDVYEGDAEITQVSSSVNSTHFSLIFRCKNCLQWSHGGSSGGASTSGGVLVLGWVQAFDDPGNPTCPEQITLQQHDNGMGIWGAQLNTDAASPSYTDWAAQATKTVTGDCEGPTETSVVGVPVPTGVSFDYIVVGGGAGGIPAADKLSEAGKSVLLIEKGFASTANTGGTLGPEWLEGHDLTRFDVPGLCSQIWVDSKGIACEDTDQMAGCVLGGGTAVNAGLWFKPYSLDWDYLFPDGWKYNDVQPAINRALSRIPGTDAPSTDGKRYYQEGFEVLSKGLAAGGWTSVTANNAPDKKNRTFAHAPFMFAGGERNGPLGTYFQTAKKRNNFDVWLNTSVKRVIREGGHITGVEVEPFRDGGYEGIVPVTKVTGRVILSAGTFGSAKILLRSGIGPEDQLEVVAASEKDGPTMIGNSSWINLPVGYNLDDHLNTDTVISHPDVVFYDFYEAWDDPIESDKNSYLESRTGILAQAAPNIGPMFWEEIVGADGIVRQLQWTARVEGSLGAPNGHTMTMSQYLGRGATSRGRMTITPSLTTIVSDVPYLKDPNDKEAVIQGIINLQNALQNVANLTWLFPNSTITPREYVESMVVSPSNRRSNHWMGTNKLGTDDGRKGGSAVVDLDTRVYGTDNLFVIDASIFPGVPTTNPTSYIVVAAEHASSRILALPDLEPVPKYGQCGGREWTGSFVCADGSTCEYQNEWYSQCL
Consider B2, for which, in [3], the Km is on record as 52 mM, the kcat is 1.3 s⁻¹ and the kcat/Km turned out to be 25 M⁻¹ s⁻¹.

B3: Myriococcum thermophilum cellobiose dehydrogenase (CDH, SEQ ID NO: 1) variant W316L (Thermothelomyces myriococcoides; W316L) (protein)
chain: B2 chain with S292N, W295L
B3: in [4], the kcat is 9.9 s⁻¹ and the kcat/Km is 2.8 M⁻¹ s⁻¹.

B4: Myriococcum thermophilum cellobiose dehydrogenase (CDH), recombinant wild type, SEQ ID NO: 1 (Thermothelomyces myriococcoides) (protein)
chain: B2 chain with S292N
For B4, in series [5], the Km stood at 6.8 mM, the catalytic constant (kcat) was determined as 0.32 s⁻¹ and the kcat/Km was found to be 47 M⁻¹ s⁻¹.

B5: Myriococcum thermophilum cellobiose dehydrogenase (CDH, SEQ ID NO: 1) variant N721D (Thermothelomyces myriococcoides; N721D) (protein)
chain: B2 chain with S292N, N700D
For the protein B5, in [6], the Km was 6.1 mM, the kcat was 0.08 s⁻¹ and the kcat/Km is 13.2 M⁻¹ s⁻¹.

B6: Myriococcum thermophilum cellobiose dehydrogenase (CDH, SEQ ID NO: 1) variant R622N (Thermothelomyces myriococcoides; R622N) (protein)
chain: B2 chain with S292N, R601N
As for B6, in series [7], the kcat was 13.1 s⁻¹ and the kcat/Km was 6.0 M⁻¹ s⁻¹.

B7: Myriococcum thermophilum cellobiose dehydrogenase (CDH, SEQ ID NO: 1) variant W316R (Thermothelomyces myriococcoides; W316R) (protein)
chain: B2 chain with S292N, W295R
For the protein B7, in series [8], the kcat is 1.2 s⁻¹ and the catalytic efficiency (kcat/Km) is 0.34 M⁻¹ s⁻¹.

B8: Corynascus thermophilus CDH flavodehydrogenase domain (amino acids 249-787 of SEQ ID NO: 7) variant C310Y (C310YDH) (Thermothelomyces fergusii; C310Y) (protein)
chain: YDYIVVGAGAGGITVADKLSEAGHKVLLIEKGPPSTGLWNGTMKPEWLEGTDLTRFDVPGLYNQIWVDSAGIACTDTDQMAGCVLGGGTAVNAGLWWKPHPADWDDNFPHGWKSSDLADATERVFSRIPGTWHPSQDGKLYRQEGFEVISQGLANAGWREVDANQEPSEKNRTYSHSVFMFSGGERGGPLATYLASAAQRSNFNLWVNTSVRRAIRTGPRVSGVELECLADGGFNGTVNLKEGGGVIFSAGAFGSAKLLLRSGIGPEDQLEIVASSKDGETFISKNDWIKLPVGHNLIDHLNTDLIITHPDVVFYDFYAAWDNPITEDKEAYLNSRSGILAQAAPNIGPLMWEEVTPSDGITRQFQWTCRVEGDSSKTNSTHAMTLSQYLGRGVVSRGRMGITSGLTTTVAEHPYLHNDGDLEAVIQGIQNVVDALSQVPDLEWVLPPPNTTVEEYVNSLIVSPANRRANHWMGTAKMGLDDGRSGGSAVVDLNTKVYGTDNLFVVDASIFPGMSTGNPSAMIVIVAEQAAQRILSLRY
Regarding B8, in [9], the Michaelis-Menten constant (Km) turned out to be 37.1 mM, the turnover number (kcat) stood at 17.6 s⁻¹ and the kcat/Km was 474.4 M⁻¹ s⁻¹. In series [10], the Km is recorded as 51.86 mM, the kcat was determined as 0.69 s⁻¹ and the kcat/Km was found to be 13.3 M⁻¹ s⁻¹.

B9: Corynascus thermophilus CDH flavodehydrogenase domain, recombinant wild type (wtDH), amino acids 249-787 of SEQ ID NO: 7 (Thermothelomyces fergusii) (protein)
chain: B8 chain with Y62C
In the case of B9, the Km in [11] was found to be 2.89 mM.
